Data: PMC3988174

Assays:
[1] = biological target: T1, LHCA4(TP)-DHFRHis (Arabidopsis thaliana | not stated); assay: pull-down; solid phase binding assay: His-tagged TP-DHFR or DHFR immobilised on Ni-NTA resin (up to 800 pmol), incubated with 35S-labelled in vitro translated receptor, 25°C, 30 min, 50 mM Hepes-KOH pH 7.5, 5 mM MgCl2, 40 mM KOAc, 0.1% Triton X-100, 40 mM imidazole, 0.1 mM GTP; phosphorimager
T1 sequence (P27521 whole entry, looked up): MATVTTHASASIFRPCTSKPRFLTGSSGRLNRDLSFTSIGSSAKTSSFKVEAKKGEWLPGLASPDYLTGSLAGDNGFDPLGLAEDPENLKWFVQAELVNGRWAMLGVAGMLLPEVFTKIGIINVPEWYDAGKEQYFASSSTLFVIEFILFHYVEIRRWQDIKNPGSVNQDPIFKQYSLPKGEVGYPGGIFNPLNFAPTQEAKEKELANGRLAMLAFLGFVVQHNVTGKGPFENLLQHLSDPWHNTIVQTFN

[2] = biological target: T2, FNR1(TP)-DHFRHis (Arabidopsis thaliana | not stated); assay: as above
T2 sequence (Q9FKW6 whole entry, looked up): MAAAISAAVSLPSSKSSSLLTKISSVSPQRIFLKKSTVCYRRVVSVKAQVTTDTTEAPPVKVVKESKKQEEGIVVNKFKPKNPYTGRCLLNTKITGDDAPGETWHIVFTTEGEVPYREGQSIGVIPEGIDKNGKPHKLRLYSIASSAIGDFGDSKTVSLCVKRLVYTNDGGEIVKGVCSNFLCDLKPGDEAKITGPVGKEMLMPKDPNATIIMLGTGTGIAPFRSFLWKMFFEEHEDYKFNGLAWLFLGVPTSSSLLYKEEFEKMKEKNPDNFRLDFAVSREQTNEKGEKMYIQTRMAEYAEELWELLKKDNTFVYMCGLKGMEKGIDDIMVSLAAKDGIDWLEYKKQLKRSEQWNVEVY

[3] = biological target: atToc132 G-domain bait (Arabidopsis thaliana) (UniProt Q9SLF3); assay: two-hybrid; pairwise split-ubiquitin yeast two-hybrid of isolated NubG-preys with Toc159G, Toc132G or Toc132AG bait in NMY51; growth on SD-LWHA (3-AT) and quantitative β-Gal assay, activity relative to a reference bait set to 100%
[4] = biological target: atToc132 A- plus G-domains bait (Arabidopsis thaliana) (UniProt Q9SLF3); assay: as above
[5] = biological target: atToc159 G-domain bait (Arabidopsis thaliana) (UniProt O81283); assay: as above
atToc159 G-domain bait (Arabidopsis thaliana), sequence (O81283 728-1092): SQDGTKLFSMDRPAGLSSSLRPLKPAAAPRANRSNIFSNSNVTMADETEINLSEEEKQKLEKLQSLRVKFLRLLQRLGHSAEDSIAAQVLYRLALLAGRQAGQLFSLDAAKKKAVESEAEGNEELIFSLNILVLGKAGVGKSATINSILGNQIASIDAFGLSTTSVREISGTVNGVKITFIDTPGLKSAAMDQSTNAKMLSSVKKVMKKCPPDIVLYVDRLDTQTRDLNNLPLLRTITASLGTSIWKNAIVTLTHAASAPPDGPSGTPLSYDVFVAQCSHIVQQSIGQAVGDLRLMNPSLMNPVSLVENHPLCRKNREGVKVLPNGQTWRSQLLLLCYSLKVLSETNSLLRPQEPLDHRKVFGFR

atToc132 A- plus G-domains bait (Arabidopsis thaliana), sequence (Q9SLF3 1-794): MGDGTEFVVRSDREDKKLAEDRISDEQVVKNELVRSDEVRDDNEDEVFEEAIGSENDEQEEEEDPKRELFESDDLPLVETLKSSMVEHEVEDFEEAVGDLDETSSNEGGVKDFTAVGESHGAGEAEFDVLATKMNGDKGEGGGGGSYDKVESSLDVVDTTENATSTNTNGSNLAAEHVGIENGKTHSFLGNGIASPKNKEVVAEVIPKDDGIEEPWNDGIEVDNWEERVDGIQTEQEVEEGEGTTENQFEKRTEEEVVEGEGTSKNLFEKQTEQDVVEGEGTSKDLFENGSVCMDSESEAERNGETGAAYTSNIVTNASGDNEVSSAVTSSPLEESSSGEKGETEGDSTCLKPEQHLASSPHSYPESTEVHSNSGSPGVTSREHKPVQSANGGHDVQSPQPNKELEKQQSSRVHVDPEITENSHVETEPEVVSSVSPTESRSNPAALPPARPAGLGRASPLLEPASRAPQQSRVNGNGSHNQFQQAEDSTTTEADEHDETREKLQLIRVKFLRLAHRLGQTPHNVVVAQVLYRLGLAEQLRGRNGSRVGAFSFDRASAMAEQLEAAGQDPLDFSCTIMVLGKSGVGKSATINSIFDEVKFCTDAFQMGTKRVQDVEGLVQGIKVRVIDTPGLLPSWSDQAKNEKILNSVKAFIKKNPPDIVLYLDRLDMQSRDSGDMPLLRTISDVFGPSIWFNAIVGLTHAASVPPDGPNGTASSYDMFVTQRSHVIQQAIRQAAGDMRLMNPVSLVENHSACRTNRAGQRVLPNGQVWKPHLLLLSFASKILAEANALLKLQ
atToc132 G-domain bait (Arabidopsis thaliana), sequence (Q9SLF3 456-794): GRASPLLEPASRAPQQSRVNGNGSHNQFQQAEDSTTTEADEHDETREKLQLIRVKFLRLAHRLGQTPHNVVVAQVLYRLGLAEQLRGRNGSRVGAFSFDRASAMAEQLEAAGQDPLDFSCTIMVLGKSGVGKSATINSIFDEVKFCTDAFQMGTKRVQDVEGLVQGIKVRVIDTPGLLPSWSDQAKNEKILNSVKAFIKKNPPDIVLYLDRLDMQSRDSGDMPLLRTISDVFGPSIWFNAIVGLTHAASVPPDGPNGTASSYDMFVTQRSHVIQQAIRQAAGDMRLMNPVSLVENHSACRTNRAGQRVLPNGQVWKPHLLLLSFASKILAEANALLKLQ
[35S]atToc159AG, sequence (O81283 1-1092): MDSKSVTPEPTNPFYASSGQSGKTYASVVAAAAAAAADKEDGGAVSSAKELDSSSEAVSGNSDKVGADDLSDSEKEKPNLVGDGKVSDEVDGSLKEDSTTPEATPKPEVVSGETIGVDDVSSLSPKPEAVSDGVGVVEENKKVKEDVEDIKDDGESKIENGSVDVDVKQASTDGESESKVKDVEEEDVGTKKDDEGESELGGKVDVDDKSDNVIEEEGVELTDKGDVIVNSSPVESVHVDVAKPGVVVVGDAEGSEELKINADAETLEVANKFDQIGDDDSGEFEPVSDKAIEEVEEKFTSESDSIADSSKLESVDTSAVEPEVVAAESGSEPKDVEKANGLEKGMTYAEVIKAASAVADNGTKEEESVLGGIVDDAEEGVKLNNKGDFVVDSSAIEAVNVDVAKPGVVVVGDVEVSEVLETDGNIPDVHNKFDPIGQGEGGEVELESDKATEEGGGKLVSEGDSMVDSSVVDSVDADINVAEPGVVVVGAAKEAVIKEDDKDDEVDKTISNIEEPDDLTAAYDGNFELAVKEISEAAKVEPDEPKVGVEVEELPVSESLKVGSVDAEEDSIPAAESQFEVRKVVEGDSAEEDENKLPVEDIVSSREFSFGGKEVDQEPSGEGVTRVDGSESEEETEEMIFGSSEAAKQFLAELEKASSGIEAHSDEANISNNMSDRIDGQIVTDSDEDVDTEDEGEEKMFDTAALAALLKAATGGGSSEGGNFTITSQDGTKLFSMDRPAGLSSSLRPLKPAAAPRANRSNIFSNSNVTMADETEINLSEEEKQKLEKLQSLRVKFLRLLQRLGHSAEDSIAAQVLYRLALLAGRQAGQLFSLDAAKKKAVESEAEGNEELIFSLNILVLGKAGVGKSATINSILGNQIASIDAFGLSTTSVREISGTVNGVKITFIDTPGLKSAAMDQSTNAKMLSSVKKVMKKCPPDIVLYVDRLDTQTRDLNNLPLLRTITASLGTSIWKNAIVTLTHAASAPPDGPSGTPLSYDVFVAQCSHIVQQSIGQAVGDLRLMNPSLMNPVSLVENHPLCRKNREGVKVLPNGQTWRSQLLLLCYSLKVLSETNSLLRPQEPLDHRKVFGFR
[35S]atToc132AG, sequence (Q9SLF3 1-794): as the sequence (Q9SLF3 1-794) above
Photosystem II Subunit P-1, sequence (Q42029 whole entry): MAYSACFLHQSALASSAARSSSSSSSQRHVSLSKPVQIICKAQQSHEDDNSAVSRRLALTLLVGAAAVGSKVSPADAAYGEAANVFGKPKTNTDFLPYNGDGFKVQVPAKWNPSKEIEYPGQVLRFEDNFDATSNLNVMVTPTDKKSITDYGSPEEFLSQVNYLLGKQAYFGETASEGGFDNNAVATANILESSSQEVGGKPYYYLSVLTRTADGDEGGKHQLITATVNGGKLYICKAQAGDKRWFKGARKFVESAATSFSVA
Photosystem I subunit L, sequence (Q9SUI4 whole entry): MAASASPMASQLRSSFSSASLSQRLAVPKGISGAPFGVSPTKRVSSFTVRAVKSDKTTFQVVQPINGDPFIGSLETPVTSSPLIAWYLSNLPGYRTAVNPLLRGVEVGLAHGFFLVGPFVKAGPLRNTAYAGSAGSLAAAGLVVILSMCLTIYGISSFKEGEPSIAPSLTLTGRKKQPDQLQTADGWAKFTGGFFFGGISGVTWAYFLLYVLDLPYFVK
ATP carrier protein 1, sequence (P31167 whole entry): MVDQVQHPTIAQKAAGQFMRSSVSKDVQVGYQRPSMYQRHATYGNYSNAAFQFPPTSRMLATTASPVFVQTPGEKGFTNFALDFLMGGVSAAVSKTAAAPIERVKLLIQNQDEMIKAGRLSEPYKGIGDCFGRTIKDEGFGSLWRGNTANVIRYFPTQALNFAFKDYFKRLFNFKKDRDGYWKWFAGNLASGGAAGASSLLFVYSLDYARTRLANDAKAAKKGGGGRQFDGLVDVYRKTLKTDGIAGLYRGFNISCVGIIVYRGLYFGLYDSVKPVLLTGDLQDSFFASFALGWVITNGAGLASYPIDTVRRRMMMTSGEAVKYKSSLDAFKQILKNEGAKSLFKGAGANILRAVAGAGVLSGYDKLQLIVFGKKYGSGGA
Photosystem I subunit D-1, sequence (Q9S7H1 whole entry): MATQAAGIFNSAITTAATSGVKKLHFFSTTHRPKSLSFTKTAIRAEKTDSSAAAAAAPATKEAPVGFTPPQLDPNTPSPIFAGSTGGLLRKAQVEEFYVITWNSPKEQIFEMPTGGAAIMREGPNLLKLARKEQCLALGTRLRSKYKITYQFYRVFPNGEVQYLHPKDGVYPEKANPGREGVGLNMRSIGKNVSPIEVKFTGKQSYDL
THI1 -involved in thiamine synthesis (vitamin B), sequence (Q38814 whole entry): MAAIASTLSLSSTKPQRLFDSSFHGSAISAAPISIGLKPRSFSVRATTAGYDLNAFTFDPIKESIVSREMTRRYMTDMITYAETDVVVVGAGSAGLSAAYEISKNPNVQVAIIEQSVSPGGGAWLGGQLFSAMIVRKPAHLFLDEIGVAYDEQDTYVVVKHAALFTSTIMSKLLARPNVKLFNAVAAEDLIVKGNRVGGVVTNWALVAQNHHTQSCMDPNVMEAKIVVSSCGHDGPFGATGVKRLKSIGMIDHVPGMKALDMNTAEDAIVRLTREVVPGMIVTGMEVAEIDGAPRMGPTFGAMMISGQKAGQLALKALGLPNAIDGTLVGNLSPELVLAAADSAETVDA
Photosystem I light harvesting complex gene 1, sequence (Q01667 whole entry, one chain of several): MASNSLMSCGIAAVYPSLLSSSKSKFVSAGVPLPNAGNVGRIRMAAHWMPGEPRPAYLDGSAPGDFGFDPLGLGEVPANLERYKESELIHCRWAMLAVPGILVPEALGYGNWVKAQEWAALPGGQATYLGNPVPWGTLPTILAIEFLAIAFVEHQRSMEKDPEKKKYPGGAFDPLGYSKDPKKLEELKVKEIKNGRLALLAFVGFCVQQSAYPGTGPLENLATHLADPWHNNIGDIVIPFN

| % increase in strength of interaction (β-Gal) with Toc132AG against Toc132G [4] | % decrease in strength of interaction (β-Gal) with Toc159G against Toc132G [5] | Substance | further results |
| --- | --- | --- | --- |
|  |  | [35S]atToc159AG (from UniProt O81283 1-1092) (domain or fragment) | percent bound at 800 pmol LHCA4(TP)-DHFR [1]: 38.2%; percent bound at 800 pmol FNR1(TP)-DHFR [2]: 51.9% |
|  |  | Lipid-transfer protein (natural protein) | % increase in strength of interaction (β-Gal) with 132G against 159G [3]: 38.1% |
| 33.6% |  | Plastidial Dihydrolipoamide Acetyltransferase (from UniProt Q9C8P0 1-465) (natural protein) |  |
|  |  | THI1 -involved in thiamine synthesis (vitamin B) (from UniProt Q38814 1-349) (natural protein) | % increase in strength of interaction (β-Gal) with 132G against 159G [3]: 52% |
|  | -26.1% | Photosystem II 5 kD protein (natural protein) |  |
|  | -12.2% | Photosystem I subunit D-1 (from UniProt Q9S7H1 1-208) (natural protein) |  |
|  | -6.7% | Photosystem II Subunit P-1 (from UniProt Q42029 1-263) (natural protein) |  |
|  | -27.1% | Photosystem I reaction centre subunit IV (from UniProt Q9S831 1-143) (natural protein) |  |
|  | -5.52% | Light-Harvesting Chlorophyll B-Binding Protein 3 (from UniProt Q9S7M0 1-265) (natural protein) |  |
|  |  | ATP carrier protein 1 (from UniProt P31167 1-381) (natural protein) | % increase in strength of interaction (β-Gal) with 132G against 159G [3]: 50.6% |
|  |  | [35S]atToc132AG (from UniProt Q9SLF3 1-794) (domain or fragment) | percent bound at 800 pmol LHCA4(TP)-DHFR [1]: 15%; percent bound at 800 pmol FNR1(TP)-DHFR [2]: 8.7% |
|  | -26.8% | Photosystem I subunit L (from UniProt Q9SUI4 1-219) (natural protein) |  |
|  |  | Photosystem I light harvesting complex gene 1 (from UniProt Q01667 1-241) (natural protein) | % increase in strength of interaction (β-Gal) with Toc159G against Toc132G [5]: 11.3% |
|  | -28.2% | Photosystem I P Subunit (from UniProt Q8LCA1 1-174) (natural protein) |  |
| 98% |  | Rhomboid-Like Protein 11 (from UniProt Q84MB5 1-280) (natural protein) |  |
| 115% |  | Membrane-associated progesterone binding protein 3 (from UniProt Q9M2Z4 1-233) (natural protein) | relative β-Gal activity with 132G bait, % higher than with 159G bait [3]: 77.5% |
| 93.8% |  | Thioredoxin M-Type 4 (from UniProt Q9SEU6 1-193) (natural protein) | relative β-Gal activity with 132G bait, % higher than with 159G bait [3]: 25% |
|  |  | Photosystem I subunit E-2 (from UniProt Q9S714 1-145) (natural protein) | % reduction in strength of interaction (β-Gal) with Toc132AG against Toc132G [4]: 50%; % increase in strength of interaction (β-Gal) with Toc159G against Toc132G [5]: 14.4% |
| 60.6% |  | ThiaminC (from UniProt O82392 1-644) (natural protein) | relative β-Gal activity with 132G bait, % higher than with 159G bait [3]: 25.3% |
|  |  | ATPase, F0 complex, subunit B/B’ (from UniProt Q42139 1-219) (natural protein) | % increase in strength of interaction (β-Gal) with 132G against 159G [3]: 16.5% |
|  | -11.9% | Photosystem II Subunit S (from UniProt Q9XF91 1-265) (natural protein) |  |
|  | -29.6% | Plastocyanin 2 (from UniProt P42699 1-167) (natural protein) |  |
| 285% |  | Copper Chaperone (from UniProt O82089 1-121) (natural protein) | relative β-Gal activity with 132G bait, % lower than with 159G bait [3]: 27% |
|  |  | Light-harvesting chlorophyll-protein complex II subunit B1 (natural protein) | relative strength of interaction (β-Gal) with Toc132AG against Toc132G, % change [4]: -25.9%; % increase in strength of interaction (β-Gal) with Toc159G against Toc132G [5]: 26.4% |
| 62.2% |  | Acyl Carrier Protein 2 (from UniProt P25701 1-136) (natural protein) |  |
| 55.2% |  | Glucose-6-phosphate transmembrane transporter (from UniProt Q9M5A9 1-388) (natural protein) |  |
| 55.8% |  | Chaperonin 60 Beta (from UniProt P21240 1-600) (natural protein) |  |
|  |  | PGR5-Like A (from UniProt Q8H112 1-324) (natural protein) | % increase in strength of interaction (β-Gal) with Toc159G against Toc132G [5]: 13% |
